# From paper PMC4345975
# Target: GFP–cyclin A (human) (UniProt P20248)
# Test: fluorescence cross-correlation spectroscopy
# UniProt P20248, sequence (P20248 whole entry): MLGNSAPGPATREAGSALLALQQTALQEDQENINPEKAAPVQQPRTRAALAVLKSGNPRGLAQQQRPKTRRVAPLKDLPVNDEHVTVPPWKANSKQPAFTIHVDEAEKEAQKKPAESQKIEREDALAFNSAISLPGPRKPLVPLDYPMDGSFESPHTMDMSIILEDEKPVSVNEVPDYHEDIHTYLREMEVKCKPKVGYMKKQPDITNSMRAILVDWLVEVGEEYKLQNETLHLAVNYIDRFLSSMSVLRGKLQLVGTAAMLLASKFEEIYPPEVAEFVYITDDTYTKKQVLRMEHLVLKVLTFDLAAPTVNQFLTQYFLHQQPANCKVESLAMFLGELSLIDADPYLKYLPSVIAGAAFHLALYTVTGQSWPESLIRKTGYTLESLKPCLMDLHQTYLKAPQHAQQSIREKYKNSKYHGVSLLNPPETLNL
substance,measurement,value
mCherry–SAMHD1 (from UniProt Q9Y3Z3 1-626) (natural protein),cross-correlation,9.9%
